Positions count from the first letter of the chain named. *1 amine or outer side, *2 acyl side, *3 side chain or, on linkers, in order; H or OH if unused. Where no end group is shown, it is not given here. Side-chain parts run from the residue outwards. [ ]: non-standard residue; d: D form. The star is where a group is joined. C20 diacid = O=C(O)CCCCCCCCCCCCCCCCCCC(=O)*; C18 diacid = O=C(O)CCCCCCCCCCCCCCCCC(=O)*; γGlu = O=C(O)[C@H](CCC(=O)[*:2])N[*:1]; εLys = N[C@@H](CCCCN[*:1])C(=O)[*:2]; Aib = CC(C)(N)C(=O)O
T1: human GIP receptor (human, UniProt P48546 22-466)
T1 sequence (looked up): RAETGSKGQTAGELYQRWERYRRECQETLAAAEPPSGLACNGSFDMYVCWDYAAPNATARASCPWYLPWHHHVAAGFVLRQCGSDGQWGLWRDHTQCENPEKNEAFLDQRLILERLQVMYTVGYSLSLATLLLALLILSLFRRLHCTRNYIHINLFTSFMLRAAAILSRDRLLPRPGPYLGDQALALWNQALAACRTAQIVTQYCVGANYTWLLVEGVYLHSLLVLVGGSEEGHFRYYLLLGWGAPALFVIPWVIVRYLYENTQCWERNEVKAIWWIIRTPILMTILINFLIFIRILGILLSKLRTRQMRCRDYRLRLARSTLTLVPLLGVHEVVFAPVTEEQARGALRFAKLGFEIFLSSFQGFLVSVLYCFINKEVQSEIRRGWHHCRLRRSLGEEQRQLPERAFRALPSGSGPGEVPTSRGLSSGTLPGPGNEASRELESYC

T2: human neuropeptide Y2 receptor (human, UniProt P49146 1-381)
T2 sequence (looked up): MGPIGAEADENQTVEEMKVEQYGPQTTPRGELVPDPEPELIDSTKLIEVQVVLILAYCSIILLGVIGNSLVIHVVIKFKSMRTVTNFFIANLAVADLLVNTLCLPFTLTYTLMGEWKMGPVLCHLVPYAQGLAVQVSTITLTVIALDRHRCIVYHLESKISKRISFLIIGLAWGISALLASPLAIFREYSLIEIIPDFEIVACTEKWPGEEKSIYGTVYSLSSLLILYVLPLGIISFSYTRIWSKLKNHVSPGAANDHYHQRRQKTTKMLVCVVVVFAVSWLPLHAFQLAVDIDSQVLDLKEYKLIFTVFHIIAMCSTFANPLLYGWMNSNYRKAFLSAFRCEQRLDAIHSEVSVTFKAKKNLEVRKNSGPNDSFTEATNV

T3: human GIP receptor (human, UniProt P48546 22-466)
T3 sequence (looked up): T1 sequence (looked up)

T4: human neuropeptide Y2 receptor (human, UniProt P49146 1-381)
T4 sequence (looked up): T2 sequence (looked up)

B1: Compound 156 (peptide)
peptide: YXEGTFTSDYSAXLEKQAQXAFVRHLINKXTRQRY
modifications: Aib at 2, 13, 20, 30; Lys29 epsilon-amino: C18DA-gGlu-gGlu-gGlu-gGlu-gGlu-gGlu-eLys; C-terminal amide
B2: Compound 21 (peptide)
peptide: B1 peptide with Y10L, A12I, V23I
modifications: Aib at 2, 13, 20, 30; Lys29 epsilon-amino acylated with C20DA-gGlu-gGlu-gGlu-gGlu-gGlu-gGlu-eLys; C-terminal amide
B3: Compound 28 (peptide)
peptide: B1 peptide with A12I, Q17E
modifications: Aib at 2, 13, 20, 30; Lys29 epsilon-amino acylated with C20DA-gGlu-gGlu-gGlu-gGlu-gGlu-gGlu-eLys; C-terminal amide
B4: Compound 41 (peptide)
peptide: B1 peptide with A12I, X30I
modifications: Aib at 2, 13, 20; Lys29 epsilon-amino acylated with C18DA-gGlu-gGlu-gGlu-gGlu-gGlu; C-terminal amide
B5: Compound 45 (peptide)
peptide: B1 peptide with A12I, A21E, X30L
modifications: Aib at 2, 13, 20; Lys29 epsilon-amino acylated with C18DA-gGlu-gGlu-gGlu-gGlu-gGlu-AHX; C-terminal amide
B6: Compound 37 (peptide)
peptide: B1 peptide with A12I, V23L
modifications: Aib at 2, 13, 20, 30; Lys29 epsilon-amino acylated with C18DA-gGlu-gGlu-gGlu-gGlu-gGlu-gGlu-eLys; C-terminal amide
B7: Compound 22 (peptide)
peptide: B1 peptide with A12I, E15D, V23I
modifications: Aib at 2, 20, 30; aMeL at 13; Lys29 epsilon-amino acylated with C20DA-gGlu-gGlu-gGlu-gGlu-gGlu-gGlu-eLys; C-terminal amide
B8: Compound 7 (peptide)
peptide: B1 peptide with A12I, X30L
modifications: Aib at 2, 13, 20; Lys29 epsilon-amino acylated with C18DA-gGlu-gGlu-gGlu-gGlu-gGlu-OEG; C-terminal amide
B9: Compound 27 (peptide)
peptide: B1 peptide with A12I, X30L
modifications: Aib at 2, 13, 20; Lys29 epsilon-amino acylated with C20DA-gGlu-gGlu-gGlu-gGlu-gGlu-gGlu-eLys; C-terminal amide
B10: Compound 67 (peptide)
peptide: B1 peptide with A12I, E15D
modifications: Aib at 2, 20, 30; aMeL at 13; Lys29 epsilon-amino acylated with C18DA-gGlu-gGlu-gGlu-gGlu-gGlu-gGlu-eLys; C-terminal amide

Each binder was assayed against T1, human GIP receptor (assay: cell-based or functional assay).

In the case of B1, the “EC50, CreLuc reporter, 0.5% hP” value is reported as 0.8 nM.

In the case of B1, the “EC50, CreLuc reporter, 100% hP” value is reported as 14.8 nM.

These binders were tested against T2, human neuropeptide Y2 receptor (assay: cell-based or functional assay).

Compared with Y[Aib]EGTFTSDYSI[Aib]LDQQAQ[Aib]AFVRHLINK([εLys-γGlu-γGlu-γGlu-γGlu-γGlu-C18 diacid])[Aib]TRQRY-NH2 [Compound 70], Y[Aib]EGTFTSDYSI[Aib]LEEEAQ[Aib]AFVRHLINK([γGlu-γGlu-γGlu-γGlu-C18 diacid])[Aib]TRQRY-NH2 [Compound 25] is 7-fold higher in “EC50, CreLuc reporter, 0.5% hP” value: 12.8 nM for the first, 89.2 nM for the second.

Compared with Y[Aib]EGTFTSDYSIALEKQAQ[Aib]AFVRHLINK([γGlu-γGlu-γGlu-γGlu-γGlu-γGlu-C20 diacid])[Aib]TRQRY-NH2 [Compound 29], B2 is 6.4-fold lower in “EC50, CreLuc reporter, 0.5% hP” value: 41.3 nM for the first, 6.5 nM for the second.

Going from B3 to B4, the “EC50, CreLuc reporter, 0.5% hP” value rises from 24 nM to 49.2 nM (2.1-fold).

Going from B5 to B6, the “EC50, CreLuc reporter, 0.5% hP” value falls from 19.8 nM to 11.9 nM (1.7-fold).

B7 and B8 are within 1.5-fold of each other in “EC50, CreLuc reporter, 0.5% hP” value: 8.8 nM for the first, 12.4 nM for the second.

For B10, the “EC50, CreLuc reporter, 0.5% hP” value was 18.1 nM.

Going from Y[Aib]EGTFTSDYSI[Aib]LDQQAQ[Aib]AFVRHLINK([εLys-γGlu-γGlu-γGlu-γGlu-γGlu-C18 diacid])[Aib]TRQRY-NH2 [Compound 70] to Y[Aib]EGTFTSDYSI[Aib]LEEEAQ[Aib]AFVRHLINK([γGlu-γGlu-γGlu-γGlu-C18 diacid])[Aib]TRQRY-NH2 [Compound 25], the “EC50, CreLuc reporter, 100% hP” value rises from 119 nM to 437 nM (3.7-fold).

First: Y[Aib]EGTFTSDYSIALEKQAQ[Aib]AFVRHLINK([γGlu-γGlu-γGlu-γGlu-γGlu-γGlu-C20 diacid])[Aib]TRQRY-NH2 [Compound 29]
Second: B2
The “EC50, CreLuc reporter, 100% hP” value of the first is 1.6-fold higher: 180 nM for the first, 111 nM for the second.

First: B3
Second: B4
The “EC50, CreLuc reporter, 100% hP” value of the first is 4.2-fold higher: 297 nM for the first, 71.3 nM for the second.

First: B5
Second: B6
The “EC50, CreLuc reporter, 100% hP” value of the first is 5.4-fold higher: 224 nM for the first, 41.3 nM for the second.

B7 and B8 are within 1.5-fold of each other in “EC50, CreLuc reporter, 100% hP” value: 72 nM for the first, 80.6 nM for the second.

First: B9
Second: B10
The “EC50, CreLuc reporter, 100% hP” value of the first is 1.6-fold lower: 69.1 nM for the first, 112 nM for the second.

Each binder was assayed against human GLP-1 receptor (human, UniProt P43220 24-463) (assay: cell-based or functional assay).

In the case of B1, the “EC50, CreLuc reporter, 0.5% hP” value is reported as 7 nM.

For B1, the “EC50, CreLuc reporter, 100% hP” value was 33.1 nM.

Target: human GLP-1 receptor (human, UniProt P43220 24-463)
Assay: cell-based or functional assay
Remark: another data set of the same source

Compared with Y[Aib]EGTFTSDYSI[Aib]LDQQAQ[Aib]AFVRHLINK([εLys-γGlu-γGlu-γGlu-γGlu-γGlu-C18 diacid])[Aib]TRQRY-NH2 [Compound 70], Y[Aib]EGTFTSDYSI[Aib]LEEEAQ[Aib]AFVRHLINK([γGlu-γGlu-γGlu-γGlu-C18 diacid])[Aib]TRQRY-NH2 [Compound 25] is 3.5-fold higher in “EC50, CreLuc reporter, 0.5% hP” value: 0.2 nM for the first, 0.7 nM for the second.

Y[Aib]EGTFTSDYSIALEKQAQ[Aib]AFVRHLINK([γGlu-γGlu-γGlu-γGlu-γGlu-γGlu-C20 diacid])[Aib]TRQRY-NH2 [Compound 29] and B2 are within 1.5-fold of each other in “EC50, CreLuc reporter, 0.5% hP” value: 5.5 nM for the first, 4.8 nM for the second.

Compared with B3, B4 is 8.9-fold lower in “EC50, CreLuc reporter, 0.5% hP” value: 8 nM for the first, 0.9 nM for the second.

Going from B5 to B6, the “EC50, CreLuc reporter, 0.5% hP” value rises from 0.5 nM to 5.8 nM (12-fold).

First: B7
Second: B10
The “EC50, CreLuc reporter, 0.5% hP” value of the first is 2-fold higher: 0.2 nM for the first, 0.1 nM for the second.

Compared with Y[Aib]EGTFTSDYSI[Aib]LEEEAQ[Aib]AFVRHLINK([γGlu-γGlu-γGlu-γGlu-C18 diacid])[Aib]TRQRY-NH2 [Compound 25], Y[Aib]EGTFTSDYSIALEKQAQ[Aib]AFVRHLINK([γGlu-γGlu-γGlu-γGlu-γGlu-γGlu-C20 diacid])[Aib]TRQRY-NH2 [Compound 29] is 16-fold higher in “EC50, CreLuc reporter, 100% hP” value: 2 nM for the first, 33 nM for the second.

B2 and B3 are within 1.5-fold of each other in “EC50, CreLuc reporter, 100% hP” value: 13.9 nM for the first, 14.8 nM for the second.

First: B4
Second: B6
The “EC50, CreLuc reporter, 100% hP” value of the first is 1.8-fold lower: 5 nM for the first, 9.1 nM for the second.

Going from B7 to B8, the “EC50, CreLuc reporter, 100% hP” value rises from 0.6 nM to 7.9 nM (13-fold).

Compared with B9, B10 is 35-fold lower in “EC50, CreLuc reporter, 100% hP” value: 20.8 nM for the first, 0.6 nM for the second.

The binders below were run against T3, human GIP receptor (assay: cell-based or functional assay).

First: B2
Second: B3
The “EC50, CreLuc reporter, 0.5% hP” value of the first is 96-fold lower: 0.2 nM for the first, 19.3 nM for the second.

B4 and B5 are the same in “EC50, CreLuc reporter, 0.5% hP” value: 0.3 nM for the first, 0.3 nM for the second.

First: B7
Second: B9
The “EC50, CreLuc reporter, 0.5% hP” value of the first is 6-fold lower: 0.1 nM for the first, 0.6 nM for the second.

With B10 the “EC50, CreLuc reporter, 0.5% hP” value was 0.1 nM.

Going from B2 to B3, the “EC50, CreLuc reporter, 100% hP” value rises from 5.6 nM to 208 nM (37-fold).

Going from B4 to B5, the “EC50, CreLuc reporter, 100% hP” value rises from 7.1 nM to 19.6 nM (2.8-fold).

B6 and B9 are within 1.5-fold of each other in “EC50, CreLuc reporter, 100% hP” value: 15.5 nM for the first, 16.3 nM for the second.

In the case of B10, the “EC50, CreLuc reporter, 100% hP” value is reported as 1.7 nM.

What follows are binders tested against T4, human neuropeptide Y2 receptor (assay: cell-based or functional assay).

For B1, the “EC50, CreLuc reporter, 0.5% hP” value was 16.3 nM.

For B1, the “EC50, CreLuc reporter, 100% hP” value was 44.1 nM.

Reference: patent US20250382344A1, “Soluble GLP1/GIP/NPY2 Receptor Triple Agonists” (Boehringer Ingelheim International GmH, priority 2024, published 2025)
